Laboratory results from paper PMC2928679 (The EMBO Journal, 2010).

B1: FlagHis12-tagged mouse Bmi1 (natural protein)
chain: MHRTTRIKITELNPHLMCVLCGGYFIDATTIIECLHSFCKTCIVRYLETSKYCPICDVQVHKTRPLLNIRSDKTLQDIVYKLVPGLFKNEMKRRRDFYAAHPSADAANGSNEDRGEVADEEKRIITDDEIISLSIEFFDQSRLDRKVNKEKPKEEVNDKRYLRCPAAMTVMHLRKFLRSKMDIPNTFQIDVMYEEEPLKDYYTLMDIAYIYTWRRNGPLPLKYRVRPTCKRMKMSHQRDGLTNAGELESDSGSDKANSPAGGVPSTSSCLPSPSTPVQSPHPQFPHISSTMNGTSNSPSANHQSSFASRPRKSSLNGSSATSSG
B2: CBX8-Flag purified from bacteria (natural protein)
chain: MELSAVGERVFAAEALLKRRIRKGRMEYLVKWKGWSQKYSTWEPEENILDARLLAAFEEREREMELYGPKKRGPKPKTFLLKAQAKAKAKTYEFRSDSARGIRIPYPGRSPQDLASTSRAREGLRNMGLSPPASSTSTSSTCRAEAPRDRDRDRDRDRERDRERERERERERERERERERGTSRVDDKPSSPGDSSKKRGPKPRKELPDPSQRPLGEPSAGLGEYLKGRKLDDTPSGAGKFPAGHSVIQLARRQDSDLVQCGVTSPSSAEATGKLAVDTFPARVIKHRAAFLEAKGQGALDPNGTRVRHGSGPPSSGGGLYRDMGAQGGRPSLIARIPVARILGDPEEESWSPSLTNLEKVVVTDVTSNFLTVTIKESNTDQGFFKEKR
B3: FlagHis12-tagged mouse Ring1b (natural protein)
chain: MSQAVQTNGTQPLSKTWELSLYELQRTPQEAITDGLEIVVSPRSLHSELMCPICLDMLKNTMTTKECLHRFCADCIITALRSGNKECPTCRKKLVSKRSLRPDPNFDALISKIYPSRDEYEAHQERVLARINKHNNQQALSHSIEEGLKIQAMNRLQRGKKQQIENGSGAEDNGDSSHCSNASTHSNQEAGPSNKRTKTSDDSGLELDNNNAAVAIDPVMDGASEIELVFRPHPTLMEKDDSAQTRYIKTSGNATVDHLSKYLAVRLALEELRSKGESNQMNLDTASEKQYTIYIATASGQFTVLNGSFSLELVSEKYWKVNKPMELYYAPTKEHK
B4: FlagHis12-tagged mouse Mel18 (natural protein)
chain: MHRTTRIKITELNPHLMCALCGGYFIDATTIVECLHSFCKTCIVRYLETNKYCPMCDVQVHKTRPLLSIRSDKTLQDIVYKLVPGLFKDEMKRRRDFYAAYPLTEVPNGSNEDRGEVLEQEKGALGDDEIVSLSIEFYEGVRDREEKKNLTENGDGDKEKTGVRFLRCPAAMTVMHLAKFLRNKMDVPSKYKVEILYEDEPLKEYYTLMDIAYIYPWRRNGPLPLKYRVQPACKRLTLPTVPTPSEGTNTSGASECESVSDKAPSPATLPATSSSLPSPATPSHGSPSSHGPPATHPTSPTPPSTAAGTTTATNGGTSNCLQTPSSTSRGRKMTVNGAPCPP

Biological target: GST-USP7 (human, UniProt Q93009-1 1-1102)
Sequence (Q93009 whole entry): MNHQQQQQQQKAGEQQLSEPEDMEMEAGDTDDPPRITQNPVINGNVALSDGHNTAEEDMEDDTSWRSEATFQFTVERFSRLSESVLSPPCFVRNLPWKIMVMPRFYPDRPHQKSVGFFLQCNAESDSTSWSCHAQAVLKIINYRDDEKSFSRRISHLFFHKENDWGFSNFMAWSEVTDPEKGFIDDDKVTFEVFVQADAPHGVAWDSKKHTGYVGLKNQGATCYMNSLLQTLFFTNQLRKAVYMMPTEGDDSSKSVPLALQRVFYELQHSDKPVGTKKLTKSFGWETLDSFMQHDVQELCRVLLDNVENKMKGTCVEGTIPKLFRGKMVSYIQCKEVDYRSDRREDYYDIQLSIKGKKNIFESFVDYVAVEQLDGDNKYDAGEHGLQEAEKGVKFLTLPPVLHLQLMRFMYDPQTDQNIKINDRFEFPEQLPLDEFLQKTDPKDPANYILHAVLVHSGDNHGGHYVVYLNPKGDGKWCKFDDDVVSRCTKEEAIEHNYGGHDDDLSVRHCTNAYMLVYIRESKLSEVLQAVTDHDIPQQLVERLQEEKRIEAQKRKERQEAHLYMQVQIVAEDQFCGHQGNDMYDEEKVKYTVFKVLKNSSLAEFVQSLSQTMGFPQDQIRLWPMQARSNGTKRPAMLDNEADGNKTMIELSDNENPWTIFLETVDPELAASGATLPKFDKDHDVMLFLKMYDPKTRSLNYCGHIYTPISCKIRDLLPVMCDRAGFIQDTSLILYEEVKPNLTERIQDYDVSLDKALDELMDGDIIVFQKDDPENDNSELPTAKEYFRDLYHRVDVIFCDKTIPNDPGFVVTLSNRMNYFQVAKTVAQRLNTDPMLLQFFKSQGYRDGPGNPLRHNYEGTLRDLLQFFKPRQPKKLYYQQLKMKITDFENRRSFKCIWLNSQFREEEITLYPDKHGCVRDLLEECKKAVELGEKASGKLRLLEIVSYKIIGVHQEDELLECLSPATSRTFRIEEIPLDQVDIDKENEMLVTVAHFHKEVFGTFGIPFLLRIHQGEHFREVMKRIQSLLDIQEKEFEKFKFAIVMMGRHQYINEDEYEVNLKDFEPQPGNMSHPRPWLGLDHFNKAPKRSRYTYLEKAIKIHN
Experiment: pull-down

Binder | binding result
B1 | binds
B2 | binds
B3 | binds
B4 | binds
